Reference: patent US20210032299A1 (Eli Lilly, published 2021)
Starred links: 1 amine or outer side, 2 acyl side, 3 side chain; linkers in the order of their positions; H or OH if unused. Non-standard residues stand in square brackets, D forms with d. Groups on a side chain read outwards from the residue. No end group written: not given here. *: point of attachment. C20 diacid = O=C(O)CCCCCCCCCCCCCCCCCCC(=O)*; C18 diacid = O=C(O)CCCCCCCCCCCCCCCCC(=O)*; αMePhe(2-F) = C[C@](N)(Cc1ccccc1F)C(=O)O; γGlu = O=C(O)[C@H](CCC(=O)[*:2])N[*:1]; αMeL = CC(C)C[C@](C)(N)C(=O)O; AEEA = NCCOCCOCC(=O)O; Aib = CC(C)(N)C(=O)O

T1: human glucose-dependent insulinotropic peptide receptor (human, UniProt P48546 22-466)
T1 sequence (looked up): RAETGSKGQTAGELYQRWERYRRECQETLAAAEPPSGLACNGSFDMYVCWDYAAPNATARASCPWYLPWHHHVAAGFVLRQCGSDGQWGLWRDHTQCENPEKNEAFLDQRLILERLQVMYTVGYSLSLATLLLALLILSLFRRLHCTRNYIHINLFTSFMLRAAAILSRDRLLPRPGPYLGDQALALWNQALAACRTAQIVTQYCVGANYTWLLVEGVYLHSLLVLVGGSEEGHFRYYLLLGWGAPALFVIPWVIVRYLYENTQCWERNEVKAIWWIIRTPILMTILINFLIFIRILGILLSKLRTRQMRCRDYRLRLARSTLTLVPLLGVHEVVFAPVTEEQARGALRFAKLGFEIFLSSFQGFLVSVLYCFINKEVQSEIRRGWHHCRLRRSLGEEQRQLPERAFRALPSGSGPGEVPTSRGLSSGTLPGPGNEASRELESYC


Tests used:
Experiment in all cases: cell-based or functional assay
human glucagon receptor = human glucagon receptor (human, UniProt P47871 26-477)
[1] = biological target: T1, human glucose-dependent insulinotropic …
human GLP-1 receptor = human GLP-1 receptor (human, UniProt P43220 24-463)

human glucagon receptor, sequence (P47871 26-477): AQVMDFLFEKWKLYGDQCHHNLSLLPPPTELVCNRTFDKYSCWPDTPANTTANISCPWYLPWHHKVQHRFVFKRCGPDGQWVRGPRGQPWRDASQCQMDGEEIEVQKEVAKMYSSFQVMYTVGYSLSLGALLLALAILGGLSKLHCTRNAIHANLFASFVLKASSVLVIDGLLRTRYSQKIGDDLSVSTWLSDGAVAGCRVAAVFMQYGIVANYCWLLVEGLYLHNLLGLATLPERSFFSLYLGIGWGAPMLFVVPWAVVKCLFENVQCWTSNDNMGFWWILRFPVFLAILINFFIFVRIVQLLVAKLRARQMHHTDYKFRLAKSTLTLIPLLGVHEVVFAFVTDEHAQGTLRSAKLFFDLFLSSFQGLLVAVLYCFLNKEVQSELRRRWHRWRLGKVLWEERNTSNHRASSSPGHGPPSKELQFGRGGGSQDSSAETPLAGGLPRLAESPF

Binder | hGcgR cAMP Rel EC50 (human glucagon receptor) [µM] | hGIPR cAMP Rel EC50 [1] [nM] | hGLP1R cAMP Rel EC50 (human GLP-1 receptor) [µM]
Ac-[dY]AEGT[αMePhe(2-F)]ISDYSIALDKK([AEEA-AEEA-γGlu-C18 diacid])HQ[Aib]EFVNYLLAGGPSSGAPPPS-NH2 (SMILES CC[C@H](C)[C@H](NC(=O)[C@H](CO)NC(=O)[C@H](Cc1ccc(O)cc1)NC(=O)[C@H](CC(=O)O)NC(=O)[C@H](CO)NC(=O)[C@@H](NC(=O)[C@](C)(Cc1ccccc1F)NC(=O)[C@@H](NC(=O)CNC(=O)[C@H](CCC(=O)O)NC(=O)[C@H](C)NC(=O)[C@@H](Cc1ccc(O)cc1)NC(C)=O)[C@@H](C)O)[C@@H](C)CC)C(=O)N[C@@H](C)C(=O)N[C@@H](CC(C)C)C(=O)N[C@@H](CC(=O)O)C(=O)N[C@@H](CCCCN)C(=O)N[C@@H](CCCCNC(=O)COCCOCCNC(=O)COCCOCCNC(=O)CC[C@H](NC(=O)CCCCCCCCCCCCCCCCC(=O)O)C(=O)O)C(=O)N[C@@H](Cc1c[nH]cn1)C(=O)N[C@@H](CCC(N)=O)C(=O)NC(C)(C)C(=O)N[C@@H](CCC(=O)O)C(=O)N[C@@H](Cc1ccccc1)C(=O)N[C@H](C(=O)N[C@@H](CC(N)=O)C(=O)N[C@@H](Cc1ccc(O)cc1)C(=O)N[C@@H](CC(C)C)C(=O)N[C@@H](CC(C)C)C(=O)N[C@@H](C)C(=O)NCC(=O)NCC(=O)N1CCC[C@H]1C(=O)N[C@@H](CO)C(=O)N[C@@H](CO)C(=O)NCC(=O)N[C@@H](C)C(=O)N1CCC[C@H]1C(=O)N1CCC[C@H]1C(=O)N1CCC[C@H]1C(=O)N[C@@H](CO)C(N)=O)C(C)C) [Example 30] | > 5 | 0.00572 | > 5
Y[Aib]EGTFISDYSILLDKK([AEEA-AEEA-γGlu-C18 diacid])HQ[Aib]DFVNYLLAAGPSSGAPPPS-NH2 (N-terminus assumed; SMILES CC[C@H](C)[C@H](NC(=O)[C@H](CO)NC(=O)[C@H](Cc1ccc(O)cc1)NC(=O)[C@H](CC(=O)O)NC(=O)[C@H](CO)NC(=O)[C@@H](NC(=O)[C@H](Cc1ccccc1)NC(=O)[C@@H](NC(=O)CNC(=O)[C@H](CCC(=O)O)NC(=O)C(C)(C)NC(=O)[C@@H](N)Cc1ccc(O)cc1)[C@@H](C)O)[C@@H](C)CC)C(=O)N[C@@H](CC(C)C)C(=O)N[C@@H](CC(C)C)C(=O)N[C@@H](CC(=O)O)C(=O)N[C@@H](CCCCN)C(=O)N[C@@H](CCCCNC(=O)COCCOCCNC(=O)COCCOCCNC(=O)CC[C@H](NC(=O)CCCCCCCCCCCCCCCCC(=O)O)C(=O)O)C(=O)N[C@@H](Cc1c[nH]cn1)C(=O)N[C@@H](CCC(N)=O)C(=O)NC(C)(C)C(=O)N[C@@H](CC(=O)O)C(=O)N[C@@H](Cc1ccccc1)C(=O)N[C@H](C(=O)N[C@@H](CC(N)=O)C(=O)N[C@@H](Cc1ccc(O)cc1)C(=O)N[C@@H](CC(C)C)C(=O)N[C@@H](CC(C)C)C(=O)N[C@@H](C)C(=O)N[C@@H](C)C(=O)NCC(=O)N1CCC[C@H]1C(=O)N[C@@H](CO)C(=O)N[C@@H](CO)C(=O)NCC(=O)N[C@@H](C)C(=O)N1CCC[C@H]1C(=O)N1CCC[C@H]1C(=O)N1CCC[C@H]1C(=O)N[C@@H](CO)C(N)=O)C(C)C) [Example 31] | 1.75 | 0.0148 | > 5
Y[dA]EGTLISDYSILLDKK([AEEA-AEEA-γGlu-C18 diacid])AQ[Aib]DFVNWLLAQGPSSGAPPPS-NH2 (N-terminus assumed; SMILES CC[C@H](C)[C@H](NC(=O)[C@H](CO)NC(=O)[C@H](Cc1ccc(O)cc1)NC(=O)[C@H](CC(=O)O)NC(=O)[C@H](CO)NC(=O)[C@@H](NC(=O)[C@H](CC(C)C)NC(=O)[C@@H](NC(=O)CNC(=O)[C@H](CCC(=O)O)NC(=O)[C@@H](C)NC(=O)[C@@H](N)Cc1ccc(O)cc1)[C@@H](C)O)[C@@H](C)CC)C(=O)N[C@@H](CC(C)C)C(=O)N[C@@H](CC(C)C)C(=O)N[C@@H](CC(=O)O)C(=O)N[C@@H](CCCCN)C(=O)N[C@@H](CCCCNC(=O)COCCOCCNC(=O)COCCOCCNC(=O)CC[C@H](NC(=O)CCCCCCCCCCCCCCCCC(=O)O)C(=O)O)C(=O)N[C@@H](C)C(=O)N[C@@H](CCC(N)=O)C(=O)NC(C)(C)C(=O)N[C@@H](CC(=O)O)C(=O)N[C@@H](Cc1ccccc1)C(=O)N[C@H](C(=O)N[C@@H](CC(N)=O)C(=O)N[C@@H](Cc1c[nH]c2ccccc12)C(=O)N[C@@H](CC(C)C)C(=O)N[C@@H](CC(C)C)C(=O)N[C@@H](C)C(=O)N[C@@H](CCC(N)=O)C(=O)NCC(=O)N1CCC[C@H]1C(=O)N[C@@H](CO)C(=O)N[C@@H](CO)C(=O)NCC(=O)N[C@@H](C)C(=O)N1CCC[C@H]1C(=O)N1CCC[C@H]1C(=O)N1CCC[C@H]1C(=O)N[C@@H](CO)C(N)=O)C(C)C) [Example 32] | > 5 | 0.00469 | > 5
Ac-[dY]AEGT[αMePhe(2-F)]ISDYSIALDKK([AEEA-AEEA-γGlu-C20 diacid])HQ[Aib]EFVNYLLEGGPSSGAPPPS-NH2 (SMILES CC[C@H](C)[C@H](NC(=O)[C@H](CO)NC(=O)[C@H](Cc1ccc(O)cc1)NC(=O)[C@H](CC(=O)O)NC(=O)[C@H](CO)NC(=O)[C@@H](NC(=O)[C@](C)(Cc1ccccc1F)NC(=O)[C@@H](NC(=O)CNC(=O)[C@H](CCC(=O)O)NC(=O)[C@H](C)NC(=O)[C@@H](Cc1ccc(O)cc1)NC(C)=O)[C@@H](C)O)[C@@H](C)CC)C(=O)N[C@@H](C)C(=O)N[C@@H](CC(C)C)C(=O)N[C@@H](CC(=O)O)C(=O)N[C@@H](CCCCN)C(=O)N[C@@H](CCCCNC(=O)COCCOCCNC(=O)COCCOCCNC(=O)CC[C@H](NC(=O)CCCCCCCCCCCCCCCCCCC(=O)O)C(=O)O)C(=O)N[C@@H](Cc1c[nH]cn1)C(=O)N[C@@H](CCC(N)=O)C(=O)NC(C)(C)C(=O)N[C@@H](CCC(=O)O)C(=O)N[C@@H](Cc1ccccc1)C(=O)N[C@H](C(=O)N[C@@H](CC(N)=O)C(=O)N[C@@H](Cc1ccc(O)cc1)C(=O)N[C@@H](CC(C)C)C(=O)N[C@@H](CC(C)C)C(=O)N[C@@H](CCC(=O)O)C(=O)NCC(=O)NCC(=O)N1CCC[C@H]1C(=O)N[C@@H](CO)C(=O)N[C@@H](CO)C(=O)NCC(=O)N[C@@H](C)C(=O)N1CCC[C@H]1C(=O)N1CCC[C@H]1C(=O)N1CCC[C@H]1C(=O)N[C@@H](CO)C(N)=O)C(C)C) [Example 33] | > 5 | 0.0551 | > 5
Y[Aib]EGT[αMePhe(2-F)]ISDYSIALDKK([AEEA-AEEA-γGlu-C20 diacid])HQ[Aib]EFVNYLLATGPSSGAPPPS-NH2 (N-terminus assumed; SMILES CC[C@H](C)[C@H](NC(=O)[C@H](CO)NC(=O)[C@H](Cc1ccc(O)cc1)NC(=O)[C@H](CC(=O)O)NC(=O)[C@H](CO)NC(=O)[C@@H](NC(=O)[C@](C)(Cc1ccccc1F)NC(=O)[C@@H](NC(=O)CNC(=O)[C@H](CCC(=O)O)NC(=O)C(C)(C)NC(=O)[C@@H](N)Cc1ccc(O)cc1)[C@@H](C)O)[C@@H](C)CC)C(=O)N[C@@H](C)C(=O)N[C@@H](CC(C)C)C(=O)N[C@@H](CC(=O)O)C(=O)N[C@@H](CCCCN)C(=O)N[C@@H](CCCCNC(=O)COCCOCCNC(=O)COCCOCCNC(=O)CC[C@H](NC(=O)CCCCCCCCCCCCCCCCCCC(=O)O)C(=O)O)C(=O)N[C@@H](Cc1c[nH]cn1)C(=O)N[C@@H](CCC(N)=O)C(=O)NC(C)(C)C(=O)N[C@@H](CCC(=O)O)C(=O)N[C@@H](Cc1ccccc1)C(=O)N[C@H](C(=O)N[C@@H](CC(N)=O)C(=O)N[C@@H](Cc1ccc(O)cc1)C(=O)N[C@@H](CC(C)C)C(=O)N[C@@H](CC(C)C)C(=O)N[C@@H](C)C(=O)N[C@H](C(=O)NCC(=O)N1CCC[C@H]1C(=O)N[C@@H](CO)C(=O)N[C@@H](CO)C(=O)NCC(=O)N[C@@H](C)C(=O)N1CCC[C@H]1C(=O)N1CCC[C@H]1C(=O)N1CCC[C@H]1C(=O)N[C@@H](CO)C(N)=O)[C@@H](C)O)C(C)C) [Example 34] | 0.913 | 0.0177 | 0.462
Y[Aib]EGT[αMeL]ISDYSIALDKK([AEEA-AEEA-γGlu-C20 diacid])HQ[Aib]EFVNYLLATGPSSGAPPPS-NH2 (N-terminus assumed; SMILES CC[C@H](C)[C@H](NC(=O)[C@H](CO)NC(=O)[C@H](Cc1ccc(O)cc1)NC(=O)[C@H](CC(=O)O)NC(=O)[C@H](CO)NC(=O)[C@@H](NC(=O)[C@](C)(CC(C)C)NC(=O)[C@@H](NC(=O)CNC(=O)[C@H](CCC(=O)O)NC(=O)C(C)(C)NC(=O)[C@@H](N)Cc1ccc(O)cc1)[C@@H](C)O)[C@@H](C)CC)C(=O)N[C@@H](C)C(=O)N[C@@H](CC(C)C)C(=O)N[C@@H](CC(=O)O)C(=O)N[C@@H](CCCCN)C(=O)N[C@@H](CCCCNC(=O)COCCOCCNC(=O)COCCOCCNC(=O)CC[C@H](NC(=O)CCCCCCCCCCCCCCCCCCC(=O)O)C(=O)O)C(=O)N[C@@H](Cc1c[nH]cn1)C(=O)N[C@@H](CCC(N)=O)C(=O)NC(C)(C)C(=O)N[C@@H](CCC(=O)O)C(=O)N[C@@H](Cc1ccccc1)C(=O)N[C@H](C(=O)N[C@@H](CC(N)=O)C(=O)N[C@@H](Cc1ccc(O)cc1)C(=O)N[C@@H](CC(C)C)C(=O)N[C@@H](CC(C)C)C(=O)N[C@@H](C)C(=O)N[C@H](C(=O)NCC(=O)N1CCC[C@H]1C(=O)N[C@@H](CO)C(=O)N[C@@H](CO)C(=O)NCC(=O)N[C@@H](C)C(=O)N1CCC[C@H]1C(=O)N1CCC[C@H]1C(=O)N1CCC[C@H]1C(=O)N[C@@H](CO)C(N)=O)[C@@H](C)O)C(C)C) [Example 35] | > 5 | 0.0125 | > 5
